Literature values, collected in publication PMC5713020.
Several values for one entry are separate records, joined by “and”; a condition that tells them apart may be missing. Identical values can stand only once. Each block holds one substance with its values, some of them ahead of it.

Tests used:
MDM4 (Homo sapiens) [1] = molecular target: MDM4 (Homo sapiens) (UniProt O15151); test: SPR (Langmuir isotherm)
MDM4 (Homo sapiens) [2] = molecular target: MDM4 (Homo sapiens) (UniProt O15151); test: SPR
p53 (Homo sapiens) = p53 (Homo sapiens) (UniProt P04637); test: SPR
p63 DBD (Homo sapiens) = p63 DBD (Homo sapiens) (UniProt Q9H3D4); test: AFS
p73 (Homo sapiens) = p73 (Homo sapiens) (UniProt O15350); test: AFS
Chain of p73 (Homo sapiens) (O15350 whole entry): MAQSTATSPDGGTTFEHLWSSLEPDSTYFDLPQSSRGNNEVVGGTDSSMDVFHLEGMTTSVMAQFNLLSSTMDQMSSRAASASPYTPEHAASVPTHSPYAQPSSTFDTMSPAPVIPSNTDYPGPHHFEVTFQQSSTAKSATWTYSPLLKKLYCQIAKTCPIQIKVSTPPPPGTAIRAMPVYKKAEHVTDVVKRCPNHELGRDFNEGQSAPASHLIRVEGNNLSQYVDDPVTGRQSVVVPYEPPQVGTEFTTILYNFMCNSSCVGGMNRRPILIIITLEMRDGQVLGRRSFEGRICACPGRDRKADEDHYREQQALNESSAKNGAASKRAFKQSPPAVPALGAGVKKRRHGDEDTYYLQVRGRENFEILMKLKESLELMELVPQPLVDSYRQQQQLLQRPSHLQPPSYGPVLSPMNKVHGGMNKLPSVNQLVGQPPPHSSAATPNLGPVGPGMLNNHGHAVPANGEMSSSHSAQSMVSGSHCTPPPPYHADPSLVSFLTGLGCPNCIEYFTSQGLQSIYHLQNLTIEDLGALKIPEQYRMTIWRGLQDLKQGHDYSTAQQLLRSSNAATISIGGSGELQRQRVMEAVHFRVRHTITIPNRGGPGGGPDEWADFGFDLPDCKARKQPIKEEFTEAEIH

Chain of Azurin (P00282 21-148): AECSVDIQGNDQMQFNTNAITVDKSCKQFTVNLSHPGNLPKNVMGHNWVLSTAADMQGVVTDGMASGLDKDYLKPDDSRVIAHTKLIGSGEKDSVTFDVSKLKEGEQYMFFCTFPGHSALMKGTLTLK
Chain of p28 p28 peptide (P00282 70-97): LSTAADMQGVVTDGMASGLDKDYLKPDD
Chain of MDM4 (Homo sapiens) (O15151 whole entry): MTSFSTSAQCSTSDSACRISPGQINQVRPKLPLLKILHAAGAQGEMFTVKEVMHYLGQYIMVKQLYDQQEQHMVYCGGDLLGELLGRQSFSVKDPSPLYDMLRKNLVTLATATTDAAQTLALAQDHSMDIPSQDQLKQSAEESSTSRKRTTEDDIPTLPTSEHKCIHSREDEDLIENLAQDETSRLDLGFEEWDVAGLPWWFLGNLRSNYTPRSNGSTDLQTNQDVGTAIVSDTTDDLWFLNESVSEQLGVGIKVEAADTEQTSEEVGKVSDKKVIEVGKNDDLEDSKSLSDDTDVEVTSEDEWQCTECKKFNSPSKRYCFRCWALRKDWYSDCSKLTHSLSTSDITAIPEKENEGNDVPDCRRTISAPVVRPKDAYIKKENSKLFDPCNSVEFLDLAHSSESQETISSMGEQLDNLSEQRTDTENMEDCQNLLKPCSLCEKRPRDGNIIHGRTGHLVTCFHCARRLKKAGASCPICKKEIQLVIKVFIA
Chain of MDM2 (Q00987 whole entry): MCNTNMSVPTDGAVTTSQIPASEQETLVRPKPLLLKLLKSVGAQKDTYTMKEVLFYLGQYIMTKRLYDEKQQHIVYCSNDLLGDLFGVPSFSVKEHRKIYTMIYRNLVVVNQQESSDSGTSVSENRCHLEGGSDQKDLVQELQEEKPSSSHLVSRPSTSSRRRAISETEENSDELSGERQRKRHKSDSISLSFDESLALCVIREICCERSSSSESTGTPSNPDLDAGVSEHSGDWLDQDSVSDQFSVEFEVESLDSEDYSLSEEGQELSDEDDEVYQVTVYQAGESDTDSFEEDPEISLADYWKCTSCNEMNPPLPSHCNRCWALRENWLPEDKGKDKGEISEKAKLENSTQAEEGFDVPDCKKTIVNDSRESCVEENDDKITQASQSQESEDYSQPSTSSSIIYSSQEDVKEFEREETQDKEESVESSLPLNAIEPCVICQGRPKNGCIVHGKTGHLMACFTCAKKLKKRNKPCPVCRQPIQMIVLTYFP
Chain of p53 (Homo sapiens) (P04637 whole entry): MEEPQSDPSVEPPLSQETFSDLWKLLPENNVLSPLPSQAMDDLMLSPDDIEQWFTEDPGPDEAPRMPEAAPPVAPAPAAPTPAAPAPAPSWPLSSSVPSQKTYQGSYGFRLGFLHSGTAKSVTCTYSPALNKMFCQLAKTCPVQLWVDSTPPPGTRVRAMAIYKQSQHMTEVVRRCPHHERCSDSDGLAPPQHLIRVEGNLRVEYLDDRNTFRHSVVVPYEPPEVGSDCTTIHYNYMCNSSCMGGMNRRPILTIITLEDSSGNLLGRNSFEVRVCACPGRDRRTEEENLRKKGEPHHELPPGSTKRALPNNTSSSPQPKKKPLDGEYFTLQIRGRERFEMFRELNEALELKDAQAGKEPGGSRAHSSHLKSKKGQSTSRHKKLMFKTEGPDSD
Chain of p63 DBD (Homo sapiens) (Q9H3D4 166-362): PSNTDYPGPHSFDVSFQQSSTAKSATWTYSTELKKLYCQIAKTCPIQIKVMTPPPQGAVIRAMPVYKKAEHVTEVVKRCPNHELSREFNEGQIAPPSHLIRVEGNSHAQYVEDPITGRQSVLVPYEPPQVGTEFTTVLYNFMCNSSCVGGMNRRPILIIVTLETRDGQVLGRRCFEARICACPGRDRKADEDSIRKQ

Kd (MDM4 (Homo sapiens) [1]): 1 µM | Kd (MDM4 (Homo sapiens) [2]): 0.39 µM
Substance: MDM2 (from UniProt Q00987)

Substance: Azurin (from UniProt P00282)
Kd (p53 (Homo sapiens)): 1.3 µM and 1.2 µM

Substance: p28 p28 peptide (from UniProt P00282)
Kd (p63 DBD (Homo sapiens)): 1 µM | Kd (p73 (Homo sapiens)): 0.1 µM
